Source: paper PMC9157081

T1: His-E1 (Glycine max, UniProt I2FKG6 1-174)
T1 sequence: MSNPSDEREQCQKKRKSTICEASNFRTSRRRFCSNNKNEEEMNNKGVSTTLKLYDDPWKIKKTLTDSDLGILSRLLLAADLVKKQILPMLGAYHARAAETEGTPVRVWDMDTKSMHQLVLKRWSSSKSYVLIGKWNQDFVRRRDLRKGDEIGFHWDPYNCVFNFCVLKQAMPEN

B1: Probe3 (dsDNA)
DNA 1: AGTTGATCAGCCCGAAATACTGCATGCACCTCACAAATTGACAAGTGCTT
DNA 2: AAGCACTTGTCAATTTGTGAGGTGCATGCAGTATTTCGGGCTGATCAACT
B2: GmMDE06 Probe2 (dsDNA)
DNA 1: GAATCAAGGGGTGAGACTCACGGTCATGACTCATGTAAATTCGTCTCCCA
DNA 2: TGGGAGACGAATTTACATGAGTCATGACCGTGAGTCTCACCCCTTGATTC
B3: GmMDE06 Probe1 (dsDNA)
DNA 1: TAAAGTATAAGTTTACTAATGGAGTCCATGAGTTAAATTTATAAAACTCT
DNA 2: AGAGTTTTATAAATTTAACTCATGGACTCCATTAGTAAACTTATACTTTA
B4: Probe4 (dsDNA)
DNA 1: AGTCTTTGTTCTTACATGAGAAACACATGTATTTTTTTTATAGACATTAT
DNA 2: ATAATGTCTATAAAAAAAATACATGTGTTTCTCATGTAAGAACAAAGACT
B5: GsWRKY20 Probe5 (dsDNA)
DNA 1: TTTTTAATTTGTTAACTCGTTGACTCAGTGGTAAACTCGAAAGTC
DNA 2: GACTTTCGAGTTTACCACTGAGTCAACGAGTTAACAAATTAAAAA

Target: T1, His-E1
Test: EMSA

Binder	binding result
B1	binds
B2	binds
B3	binds
B4	binds
B5	binds
